This is an account of results in patent publication US20230135471A1, “UBIQUITIN VARIANTS WITH IMPROVED AFFINITY FOR 53BP1” (Integrated DNA Technologies, Inc., priority 2021, published 2023).

This test addresses 53BP1 fragment (a.a. 1221-1718) fused to an adenylate cyclase fragment (two-hybrid) (UniProt Q12888). Put plainly: cell-based or functional assay.
Consider “i53 + R74K two-hybrid fusion (designed binder)”, for which the Experiment 1 Average Enrichment was found to be 0.12 log2, the Experiment 1 Rep 1 Enrichment turned out to be 0.04 log2, the Experiment 1 Rep 2 Enrichment came out at 0.21 log2 and the Experiment 2 Average Enrichment was 0.13 log2. The Experiment 2 Rep 1 Enrichment came to 0.1 log2 and the Experiment 2 Rep 2 Enrichment stood at 0.17 log2.

“i53 + R74L two-hybrid fusion (designed binder)” registered an Experiment 1 Average Enrichment of 1.11 log2, an Experiment 1 Rep 1 Enrichment of 1.35 log2, an Experiment 1 Rep 2 Enrichment of 0.88 log2 and an Experiment 2 Average Enrichment of 0.85 log2. The substance also displayed an Experiment 2 Rep 1 Enrichment of 0.95 log2 and an Experiment 2 Rep 2 Enrichment of 0.76 log2.

On to “i53 + R74M two-hybrid fusion (designed binder)”, for which the Experiment 1 Average Enrichment was 1.04 log2, the Experiment 1 Rep 1 Enrichment was 1.16 log2, the Experiment 1 Rep 2 Enrichment was 0.91 log2 and the Experiment 2 Average Enrichment amounted to 0.68 log2. Also, the Experiment 2 Rep 1 Enrichment was 0.68 log2 and the Experiment 2 Rep 2 Enrichment stood at 0.68 log2.

In the case of “i53 + R74Q two-hybrid fusion (designed binder)”, the Experiment 1 Average Enrichment worked out at 2.29 log2, the Experiment 1 Rep 1 Enrichment was found to be 2.6 log2, the Experiment 1 Rep 2 Enrichment was 1.98 log2 and the Experiment 2 Average Enrichment stood at 1.54 log2. The substance further returned an Experiment 2 Rep 1 Enrichment of 1.56 log2 and an Experiment 2 Rep 2 Enrichment of 1.52 log2.

In the case of “i53 + R74T two-hybrid fusion (designed binder)”, the Experiment 1 Average Enrichment was found to be 0.33 log2, the Experiment 1 Rep 1 Enrichment was found to be 0.4 log2, the Experiment 1 Rep 2 Enrichment stood at 0.26 log2 and the Experiment 2 Average Enrichment was determined as 0.31 log2. In addition, the Experiment 2 Rep 1 Enrichment came to 0.25 log2 and the Experiment 2 Rep 2 Enrichment turned out to be 0.38 log2.

“i53 + R74V two-hybrid fusion (designed binder)” showed an Experiment 1 Average Enrichment of 1.51 log2, an Experiment 1 Rep 1 Enrichment of 1.58 log2, an Experiment 1 Rep 2 Enrichment of 1.44 log2 and an Experiment 2 Average Enrichment of 0.95 log2. The same substance showed an Experiment 2 Rep 1 Enrichment of 1.19 log2 and an Experiment 2 Rep 2 Enrichment of 0.7 log2.

Take “i53 + S20A two-hybrid fusion (designed binder)”: the Experiment 1 Average Enrichment turned out to be 0.14 log2, the Experiment 1 Rep 1 Enrichment turned out to be 0.3 log2, the Experiment 1 Rep 2 Enrichment is -0.02 log2 and the Experiment 2 Average Enrichment is -0.26 log2. The same substance showed an Experiment 2 Rep 1 Enrichment of -0.26 log2 and an Experiment 2 Rep 2 Enrichment of -0.25 log2.

“i53 + S20C two-hybrid fusion (designed binder)” yielded an Experiment 1 Average Enrichment of -0.08 log2, an Experiment 1 Rep 1 Enrichment of -0.36 log2, an Experiment 1 Rep 2 Enrichment of 0.2 log2 and an Experiment 2 Average Enrichment of 0.05 log2. Also, the Experiment 2 Rep 1 Enrichment was -0.1 log2 and the Experiment 2 Rep 2 Enrichment turned out to be 0.21 log2.

“i53 + S20D two-hybrid fusion (designed binder)” had an Experiment 1 Average Enrichment of -0.43 log2, an Experiment 1 Rep 1 Enrichment of -0.14 log2, an Experiment 1 Rep 2 Enrichment of -0.72 log2 and an Experiment 2 Average Enrichment of 0.5 log2. For the same substance, the Experiment 2 Rep 1 Enrichment came out at 0.83 log2 and the Experiment 2 Rep 2 Enrichment is 0.18 log2.

In turn, “i53 + S20N two-hybrid fusion (designed binder)” yielded an Experiment 1 Average Enrichment of 0.31 log2, an Experiment 1 Rep 1 Enrichment of 0 log2, an Experiment 1 Rep 2 Enrichment of 0.61 log2 and an Experiment 2 Average Enrichment of -0.25 log2. Also, the Experiment 2 Rep 1 Enrichment turned out to be 0.12 log2 and the Experiment 2 Rep 2 Enrichment was -0.61 log2.

For “i53 + S20W two-hybrid fusion (designed binder)”, the Experiment 1 Average Enrichment is -0.36 log2, the Experiment 1 Rep 1 Enrichment was -0.97 log2, the Experiment 1 Rep 2 Enrichment was determined as 0.25 log2 and the Experiment 2 Average Enrichment worked out at 0.17 log2. The Experiment 2 Rep 1 Enrichment amounted to 0.1 log2 and the Experiment 2 Rep 2 Enrichment worked out at 0.24 log2.

The substance “i53 + S49A two-hybrid fusion (designed binder)” had an Experiment 1 Average Enrichment of 0.5 log2, an Experiment 1 Rep 1 Enrichment of 0.62 log2, an Experiment 1 Rep 2 Enrichment of 0.39 log2 and an Experiment 2 Average Enrichment of 0.41 log2. The same substance yielded an Experiment 2 Rep 1 Enrichment of 0.76 log2 and an Experiment 2 Rep 2 Enrichment of 0.06 log2.

Substance “i53 + S49C two-hybrid fusion (designed binder)” displayed an Experiment 1 Average Enrichment of 0.6 log2, an Experiment 1 Rep 1 Enrichment of 0.95 log2, an Experiment 1 Rep 2 Enrichment of 0.24 log2 and an Experiment 2 Average Enrichment of -0.18 log2. In addition, the Experiment 2 Rep 1 Enrichment is -0.04 log2 and the Experiment 2 Rep 2 Enrichment was -0.31 log2.

Substance “i53 + S49D two-hybrid fusion (designed binder)” came in with an Experiment 1 Average Enrichment of 0.41 log2, an Experiment 1 Rep 1 Enrichment of 0.11 log2, an Experiment 1 Rep 2 Enrichment of 0.71 log2 and an Experiment 2 Average Enrichment of 0.44 log2. Besides, the Experiment 2 Rep 1 Enrichment stood at 0.39 log2 and the Experiment 2 Rep 2 Enrichment was 0.49 log2.

On to “i53 + S49E two-hybrid fusion (designed binder)”, for which the Experiment 1 Average Enrichment turned out to be 0.44 log2, the Experiment 1 Rep 1 Enrichment came to 0.84 log2, the Experiment 1 Rep 2 Enrichment is 0.04 log2 and the Experiment 2 Average Enrichment came to 0.81 log2. For the same substance, the Experiment 2 Rep 1 Enrichment amounted to 0.96 log2 and the Experiment 2 Rep 2 Enrichment was determined as 0.67 log2.

As to “i53 + S49G two-hybrid fusion (designed binder)”, the Experiment 1 Average Enrichment was found to be 0.02 log2, the Experiment 1 Rep 1 Enrichment was 0.27 log2, the Experiment 1 Rep 2 Enrichment was -0.23 log2 and the Experiment 2 Average Enrichment is -0.31 log2. Moreover, the Experiment 2 Rep 1 Enrichment was -0.57 log2 and the Experiment 2 Rep 2 Enrichment was -0.05 log2.

“i53 + S49I two-hybrid fusion (designed binder)” showed an Experiment 1 Average Enrichment of 0.3 log2, an Experiment 1 Rep 1 Enrichment of 0.04 log2, an Experiment 1 Rep 2 Enrichment of 0.56 log2 and an Experiment 2 Average Enrichment of 0.17 log2. Besides, the Experiment 2 Rep 1 Enrichment was determined as 0.6 log2 and the Experiment 2 Rep 2 Enrichment is -0.26 log2.

Consider “i53 + S49L two-hybrid fusion (designed binder)”, for which the Experiment 1 Average Enrichment is 1 log2, the Experiment 1 Rep 1 Enrichment stood at 0.85 log2, the Experiment 1 Rep 2 Enrichment turned out to be 1.15 log2 and the Experiment 2 Average Enrichment amounted to 0.88 log2. The substance further displayed an Experiment 2 Rep 1 Enrichment of 0.97 log2, an Experiment 2 Rep 2 Enrichment of 0.8 log2, a Percent GFP Positive Rep 1 of 18.8% and a Percent GFP Positive Rep 2 of 13.6%. The substance further showed a Percent GFP Positive Rep 3 of 17.7%.

“i53 + S49M two-hybrid fusion (designed binder)” came in with an Experiment 1 Average Enrichment of 0.84 log2, an Experiment 1 Rep 1 Enrichment of 1 log2, an Experiment 1 Rep 2 Enrichment of 0.69 log2 and an Experiment 2 Average Enrichment of 0.77 log2. Also, the Experiment 2 Rep 1 Enrichment worked out at 0.57 log2 and the Experiment 2 Rep 2 Enrichment was found to be 0.98 log2.

For “i53 + S49N two-hybrid fusion (designed binder)”, the Experiment 1 Average Enrichment came to 0.04 log2, the Experiment 1 Rep 1 Enrichment was 0.31 log2, the Experiment 1 Rep 2 Enrichment is -0.23 log2 and the Experiment 2 Average Enrichment is -0.35 log2. The same substance yielded an Experiment 2 Rep 1 Enrichment of -0.59 log2 and an Experiment 2 Rep 2 Enrichment of -0.11 log2.

As for “i53 + S49P two-hybrid fusion (designed binder)”, the Experiment 1 Average Enrichment amounted to 0.78 log2, the Experiment 1 Rep 1 Enrichment is 0.65 log2, the Experiment 1 Rep 2 Enrichment was 0.91 log2 and the Experiment 2 Average Enrichment came out at 0.58 log2. The substance also showed an Experiment 2 Rep 1 Enrichment of 0.71 log2 and an Experiment 2 Rep 2 Enrichment of 0.44 log2.

“i53 + S49V two-hybrid fusion (designed binder)”: the Experiment 1 Average Enrichment turned out to be 0.52 log2, the Experiment 1 Rep 1 Enrichment is 0.8 log2, the Experiment 1 Rep 2 Enrichment was determined as 0.23 log2 and the Experiment 2 Average Enrichment stood at 0.49 log2. Besides, the Experiment 2 Rep 1 Enrichment is 0.52 log2 and the Experiment 2 Rep 2 Enrichment turned out to be 0.45 log2.

For the substance “i53 + S57A two-hybrid fusion (designed binder)”, the Experiment 1 Average Enrichment is 0.37 log2, the Experiment 1 Rep 1 Enrichment was 0.29 log2, the Experiment 1 Rep 2 Enrichment came out at 0.46 log2 and the Experiment 2 Average Enrichment came out at 0.03 log2. For the same substance, the Experiment 2 Rep 1 Enrichment was -0.03 log2 and the Experiment 2 Rep 2 Enrichment was 0.08 log2.

Substance “i53 + S57D two-hybrid fusion (designed binder)” had an Experiment 1 Average Enrichment of 1.22 log2, an Experiment 1 Rep 1 Enrichment of 1.05 log2, an Experiment 1 Rep 2 Enrichment of 1.39 log2 and an Experiment 2 Average Enrichment of 0.86 log2. The substance also showed an Experiment 2 Rep 1 Enrichment of 0.89 log2 and an Experiment 2 Rep 2 Enrichment of 0.83 log2.

As to “i53 + S57E two-hybrid fusion (designed binder)”, the Experiment 1 Average Enrichment was 0.45 log2, the Experiment 1 Rep 1 Enrichment was found to be 0.28 log2, the Experiment 1 Rep 2 Enrichment turned out to be 0.62 log2 and the Experiment 2 Average Enrichment amounted to 0.35 log2. Also, the Experiment 2 Rep 1 Enrichment came to 0.42 log2 and the Experiment 2 Rep 2 Enrichment came to 0.28 log2.

“i53 + S57H two-hybrid fusion (designed binder)” registered an Experiment 1 Average Enrichment of 0.72 log2, an Experiment 1 Rep 1 Enrichment of 0.54 log2, an Experiment 1 Rep 2 Enrichment of 0.9 log2 and an Experiment 2 Average Enrichment of 0.17 log2. Besides, the Experiment 2 Rep 1 Enrichment is -0.04 log2 and the Experiment 2 Rep 2 Enrichment was 0.39 log2.

Substance “i53 + S57K two-hybrid fusion (designed binder)” registered an Experiment 1 Average Enrichment of -0.4 log2, an Experiment 1 Rep 1 Enrichment of -0.22 log2, an Experiment 1 Rep 2 Enrichment of -0.58 log2 and an Experiment 2 Average Enrichment of 0.15 log2. In addition, the Experiment 2 Rep 1 Enrichment is -0.07 log2 and the Experiment 2 Rep 2 Enrichment was 0.36 log2.

“i53 + S57M two-hybrid fusion (designed binder)” displayed an Experiment 1 Average Enrichment of 0.01 log2, an Experiment 1 Rep 1 Enrichment of -0.11 log2, an Experiment 1 Rep 2 Enrichment of 0.12 log2 and an Experiment 2 Average Enrichment of -0.04 log2. Also, the Experiment 2 Rep 1 Enrichment is -0.17 log2 and the Experiment 2 Rep 2 Enrichment came to 0.09 log2.
